Values of other authors in PMC10171305.
Read-outs that look alike come from different tables or passages of the source.

Experiments:
Spike (SARS-CoV-2) [1] = biological target: Spike (SARS-CoV-2) (UniProt P0DTC2)
Spike (SARS-CoV-2) [2] = biological target: Spike (SARS-CoV-2) (UniProt P0DTC2); remark: listed apart in the source

Sequence of ASGR1 (P07306 whole entry): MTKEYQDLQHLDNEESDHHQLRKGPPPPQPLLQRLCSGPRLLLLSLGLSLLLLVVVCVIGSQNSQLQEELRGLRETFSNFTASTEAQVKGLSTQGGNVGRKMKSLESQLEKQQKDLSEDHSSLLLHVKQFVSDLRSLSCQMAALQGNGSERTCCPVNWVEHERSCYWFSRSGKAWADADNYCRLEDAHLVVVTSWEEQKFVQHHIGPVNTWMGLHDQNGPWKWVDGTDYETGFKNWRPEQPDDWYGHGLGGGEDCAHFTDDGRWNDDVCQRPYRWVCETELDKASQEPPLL
Sequence of KREMEN1 (Q96MU8 20-392): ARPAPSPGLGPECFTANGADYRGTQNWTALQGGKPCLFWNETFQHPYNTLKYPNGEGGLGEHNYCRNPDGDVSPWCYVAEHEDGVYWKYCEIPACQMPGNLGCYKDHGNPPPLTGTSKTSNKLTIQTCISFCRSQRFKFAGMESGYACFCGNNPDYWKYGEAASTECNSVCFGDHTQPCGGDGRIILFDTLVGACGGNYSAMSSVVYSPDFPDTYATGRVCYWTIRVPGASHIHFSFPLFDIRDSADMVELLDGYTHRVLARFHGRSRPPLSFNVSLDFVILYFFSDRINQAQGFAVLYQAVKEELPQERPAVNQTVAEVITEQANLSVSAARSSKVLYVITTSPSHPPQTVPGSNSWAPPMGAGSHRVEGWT

| Substance | Kd (Spike (SARS-CoV-2) [1]) [nM] | Kd (Spike (SARS-CoV-2) [2]) [nM] |
| --- | --- | --- |
| ASGR1 (from UniProt P07306) | 94.8 |  |
| KREMEN1 (from UniProt Q96MU8) |  | 19.3 |
